Values joined by “and” are separate entries in the source; they are usually repeats but may differ in a detail not shown here. Identical values can stand only once.
Tests used:
[1] = target: receptors on circulating human B cells (CD32B and CD79B, the two targets of PRV-3279)
[2] = target: CD32B (Fc gamma receptor IIb) (human) (UniProt P31994); assay: cell-based or functional assay
[3] = target: receptors on circulating human B cells (CD32B and CD79B, the two targets of PRV-3279); assay: receptor occupancy on circulating B cells of dosed healthy subjects (FIG. 3B)

Chain of CD32B (Fc gamma receptor IIb) (human) (P31994 43-310): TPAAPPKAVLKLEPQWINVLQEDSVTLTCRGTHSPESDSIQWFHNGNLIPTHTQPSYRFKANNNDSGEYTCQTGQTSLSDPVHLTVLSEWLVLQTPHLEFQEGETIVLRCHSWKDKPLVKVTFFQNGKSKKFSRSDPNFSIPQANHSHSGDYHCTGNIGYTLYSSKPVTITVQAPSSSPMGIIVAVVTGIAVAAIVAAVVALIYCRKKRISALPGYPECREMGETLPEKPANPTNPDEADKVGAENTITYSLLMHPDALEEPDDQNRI

Q: What does the source list for “PRV-3279, a humanized CD32B×CD79B DART® protein (bispecific antibody)”?
A: percent of available CD19+ B cells bound [1]: > 85%; receptor occupancy [1]: > 50%; inhibition of anti-human IgM stimulated B-cell proliferation (3H-thymidine incorporation), 100 nM PRV-3279, B cells of SLE patients with active or inactive disease [2]: 60%; inhibition of anti-human IgM stimulated B-cell proliferation (3H-thymidine incorporation), 100 nM PRV-3279, B cells of normal healthy volunteers and SLE patients [2]: 60%; percent of receptors occupied [3]: 70% and 75%
